Assay results: patent US20170183403A1 (UNIVERSIT T Z RICH, published 2017)

Columns and labels:
Experiment in all cases: peptide microarray (RepliTope), 15-mers
Reference peptide no. 31 = biological target: T1, Reference peptide no. 31
T1 construct: hIL-2 15-mer, first library, parental Cys replaced by Ser, on microarray; also called peptide 31
T1 peptide: VIVLELKGSETTFMS
Procedure: (§1) Additional incubations are with unrelated antibodies from the same isotype (mouse control IgG2a/lambda and mouse control IgG2a/kappa), and secondary antibodies (anti-mouse IgG (Thermo 84545, label DL650) or anti-mouse IgG (JIR 115-175-072, Label Cy5)) to assess unspecific binding due to the detection antibody. The experiments are performed essentially as described in Maksimov P, et al. 2012, PLoS One 7:e34212. doi:10.1371/journal. pone. 0034212.
(§2) The determination of peptide-antibody binding was performed by RepliTope-analysis where the peptide microarray (triplicate) was incubated with the primary antibody followed by a fluorescently labelled secondary antibody directed against the Fc-part of the primary one. All steps were performed on a TECAN microarray processing station enabling highly reliable and reproducible washing and incubation steps. After performing the incubation steps and subsequent to the final washing steps (to remove the unbound secondary antibodies) the microarrays were dried using a nitrogen stream and scanned in a high resolution microarray scanning system with appropriate wavelength settings. Control incubations were performed with an unrelated antibody having the same isotype to exclude false positive signals.
(§3) The resulting images were analyzed und quantified using spot-recognition software GenePix (Molecular Devices). For each spot, the mean signal intensity was extracted (between 0 and 65535 arbitrary units). For further data evaluation, the MMC2 values were determined. The MMC2 equals the mean value of all three instances on the microarray. Except the coefficient of variation (CV)—standard-deviation divided by the mean value—is larger 0.5, in this case the mean of the two closest values (MC2) is assigned to MMC2.

Reference peptide no. 41 = biological target: T2, Reference peptide no. 41
T2 construct: hIL-2 15-mer, first library, parental Cys replaced by Ser, on microarray; also called peptide 41
T2 peptide: NRWITFSQSIISTLT
Procedure: as §1, §2, §3

Reference peptide no. 11 = biological target: T3, Reference peptide no. 11
T3 construct: hIL-2 15-mer, first library, on microarray; also called peptide 11
T3 peptide: YKNPKLTRMLTFKFY
Procedure: as §1, §2, §3

Reference peptide no. 30 = biological target: T4, Reference peptide no. 30
T4 construct: hIL-2 15-mer, first library, on microarray; also called peptide 30
T4 peptide: NINVIVLELKGSETT
Procedure: as §1, §2, §3

Reference peptide no. 25 = biological target: T5, Reference peptide no. 25
T5 construct: hIL-2 15-mer, first library, on microarray; also called peptide 25
T5 peptide: AQSKNFHLRPRDLIS
Procedure: as §1, §2, §3

Reference peptide no. 17 = biological target: T6, Reference peptide no. 17
T6 construct: hIL-2 15-mer, first library, parental Cys replaced by Ser, on microarray; also called peptide 17
T6 peptide: KATELKHLQSLEEEL
Procedure: as §1, §2, §3

Reference peptide no. 14 = biological target: T7, Reference peptide no. 14
T7 construct: hIL-2 15-mer, first library, on microarray; also called peptide 14
T7 peptide: LTFKFYMPKKATELK
Procedure: as §1, §2, §3

Reference peptide no. 5 = biological target: T8, Reference peptide no. 5
T8 construct: hIL-2 15-mer, first library, on microarray; also called peptide 5
T8 peptide: QLEHLLLDLQMILNG
Procedure: as §1, §2, §3

Reference peptide no. 24 = biological target: T9, Reference peptide no. 24
T9 construct: hIL-2 15-mer, first library, on microarray; also called peptide 24
T9 peptide: LNLAQSKNFHLRPRD
Procedure: as §1, §2, §3

Reference peptide no. 20 = biological target: T10, Reference peptide no. 20
T10 construct: hIL-2 15-mer, first library, parental Cys replaced by Ser, on microarray; also called peptide 20
T10 peptide: SLEEELKPLEEVLNL
Procedure: as §1, §2, §3

Reference peptide no. 23 = biological target: T11, Reference peptide no. 23
T11 construct: hIL-2 15-mer, first library, on microarray; also called peptide 23
T11 peptide: EEVLNLAQSKNFHLR
Procedure: as §1, §2, §3

Reference peptide no. 44 = biological target: T12, Reference peptide no. 44
T12 construct: second library: peptide 12 with F(62) to Ala; also called peptide 44
T12 peptide: PKLTRMLTAKFYMPK
Procedure: as §1, §2, §3

Reference peptide no. 26 = biological target: T13, Reference peptide no. 26
T13 construct: hIL-2 15-mer, first library, on microarray; also called peptide 26
T13 peptide: KNFHLRPRDLISNIN
Procedure: as §1, §2, §3

Reference peptide no. 32 = biological target: T14, Reference peptide no. 32
T14 construct: hIL-2 15-mer, first library, parental Cys replaced by Ser, on microarray; also called peptide 32
T14 peptide: LELKGSETTFMSEYA
Procedure: as §1, §2, §3

Reference peptide no. 4 = biological target: T15, Reference peptide no. 4
T15 construct: hIL-2 15-mer, first library, on microarray; also called peptide 4
T15 peptide: TQLQLEHLLLDLQMI
Procedure: as §1, §2, §3

Reference peptide no. 35 = biological target: T16, Reference peptide no. 35
T16 construct: hIL-2 15-mer, first library, parental Cys replaced by Ser, on microarray; also called peptide 35
T16 peptide: FMSEYADETATIVEF
Procedure: as §1, §2, §3

Reference peptide no. 21 = biological target: T17, Reference peptide no. 21
T17 construct: hIL-2 15-mer, first library, on microarray; also called peptide 21
T17 peptide: EELKPLEEVLNLAQS
Procedure: as §1, §2, §3

Reference peptide no. 56 = biological target: T18, Reference peptide no. 56
T18 construct: second library: peptide 20 with L(92) to Ala; parental Cys replaced by Ser; also called peptide 56
T18 peptide: SLEEELKPLEEVLNA
Procedure: as §1, §2, §3

Reference peptide no. 18 = biological target: T19, Reference peptide no. 18
T19 construct: hIL-2 15-mer, first library, parental Cys replaced by Ser, on microarray; also called peptide 18
T19 peptide: ELKHLQSLEEELKPL
Procedure: as §1, §2, §3

Reference peptide no. 58 = biological target: T20, Reference peptide no. 58
T20 construct: second library: peptide 22 with L(92) to Ala; also called peptide 58
T20 peptide: KPLEEVLNAAQSKNF
Procedure: as §1, §2, §3

Reference peptide no. 59 = biological target: T21, Reference peptide no. 59
T21 construct: second library: peptide 23 with L(92) to Ala; also called peptide 59
T21 peptide: EEVLNAAQSKNFHLR
Procedure: as §1, §2, §3

Reference peptide no. 60 = biological target: T22, Reference peptide no. 60
T22 construct: second library: peptide 24 with its first Leu replaced by Ala as printed (by count this is L90, not L92); also called peptide 60
T22 peptide: ANLAQSKNFHLRPRD
Procedure: as §1, §2, §3

Reference peptide no. 27 = biological target: T23, Reference peptide no. 27
T23 construct: hIL-2 15-mer, first library, on microarray; also called peptide 27
T23 peptide: HLRPRDLISNINVIV
Procedure: as §1, §2, §3

Reference peptide no. 22 = biological target: T24, Reference peptide no. 22
T24 construct: hIL-2 15-mer, first library, on microarray; also called peptide 22
T24 peptide: KPLEEVLNLAQSKNF
Procedure: as §1, §2, §3

Measured: binding result

B1: NARA1 (antibody, mouse IgG2a, kappa, V domains shown)
VH: QVQLQQSGAELVRPGTSVKVSCKASGYAFTNYLIEWVKQRPGQGLEWIGVINPGSGGTNYNEKFKGKATLTADKSSSTAYMQLSSLTSDDSAVYFCARWRGDGYYAYFDVWGAGTTVTVSS
VL: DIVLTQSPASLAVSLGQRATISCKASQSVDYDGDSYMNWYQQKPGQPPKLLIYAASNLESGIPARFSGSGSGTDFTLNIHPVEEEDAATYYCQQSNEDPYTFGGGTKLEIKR
notes: Mouse monoclonal from hybridoma; Isotype controls used were mouse IgG2a; also called anti-IL2 (NARA1) antibody; monoclonal antibody NARA1
no binding: Reference peptide no. 31 | Reference peptide no. 41 | Reference peptide no. 11 | Reference peptide no. 30 | Reference peptide no. 25 | Reference peptide no. 17 | Reference peptide no. 14 | Reference peptide no. 5 | Reference peptide no. 24 | Reference peptide no. 20 | Reference peptide no. 23 | Reference peptide no. 44 | Reference peptide no. 26 | Reference peptide no. 32 | Reference peptide no. 4 | Reference peptide no. 35 | Reference peptide no. 21 | Reference peptide no. 56 | Reference peptide no. 18 | Reference peptide no. 58 | Reference peptide no. 59 | Reference peptide no. 60 | Reference peptide no. 27 | Reference peptide no. 22
